From patent US20190233519A1 (NANJING LEGEND BIOTECH, published 2019)

Experiments:
[1] = target: T1, human PD-1 expressed on CHO cells (human, UniProt Q15116 25-288); test: FACS on CHO cells expressing human PD-1
T1 construct: whole, on cells; Also used here for PD-1 on primary T cells (MLR) and on reporter Jurkat cells in the functional rows; also called CHO cells expressing human PD-1
Protocol: (§1) CHO cells expressing human PD-1 were dissociated from adherent culture flasks and mixed with varying concentrations of antibodies (both in a 96-well plate). […] Human IgG was used as a negative binding control. The mixture was equilibrated for 30 minutes at room temperature, washed three times with FACS buffer (PBS containing 1% BSA). FITC-conjugated anti-human kappa antibody (Jackson ImmunoResearch) used as secondary antibody was then added and incubated for 15 minutes at room temperature. Cells were washed again with FACS buffer and analyzed by flow cytometry. Data were analyzed with Prism (GraphPad Software, San Diego, Calif.) using non-linear regression, and EC₅₀ values were calculated.
BABP samples were prepared (starting at 1 μM, 3-fold serial dilution with 10 concentrations) as primary antibodies for FACS analysis.

[2] = target: T2, biotin-labeled hCTLA-4/Fc protein (human, UniProt P16410 37-161, biotin label in the FACS competition assays (sites not given)); test: FACS competition, biotin hCTLA-4-Fc on CHO cells expressing human B7-1
T2 construct: also called CTLA-4 ECD (CTLA-4-Fc); CTLA-4-Fc (GenScript, Z03373-50)

[3] = target: T3, human CTLA-4 expressed on CHO cells (human, UniProt P16410 37-223); test: FACS on CHO cells expressing human CTLA-4
T3 construct: also called CHO cells expressing human CTLA-4; CTLA-4 expressing CHO cells
Protocol: (§2) Binding of HCAbs to human CTLA-4 expressed on CHO cells was determined using a fluorescence-activated cell sorting (FACS)-based assay. CHO cells expressing human CTLA-4 were dissociated from adherent culture flasks and mixed with varying concentrations of antibodies (in a 96-well plate). […] The mixture was equilibrated for 30 minutes at room temperature, then washed three times with FACS buffer (PBS containing 1% BSA). Fluorescein isothiocyanate (FITC)-conjugated anti-human κ antibody (Jackson ImmunoResearch) was then added and incubated for 15 minutes at room temperature, serving as a secondary antibody. Cells were washed again with FACS buffer and analyzed by flow cytometry. Data were analyzed with Prism (GraphPad Software, San Diego, Calif.) using non-linear regression, and EC₅₀ values were calculated.
BABP samples were prepared (starting at 1 μM, 3-fold serial dilution with 10 concentrations) as primary antibody for FACS analysis.

[4] = target: T4, PD-1-His protein (UniProt Q15116 25-167, limits assumed); test: SPR, antibody captured by Fc, PD-1-His as analyte
T4 construct: not shown: His tag

[5] = target: T1, human PD-1 expressed on CHO cells; test: FACS competition, biotin hPD-L1-Fc on CHO cells expressing human PD-1
Protocol: The mixture was equilibrated for 30 minutes at room temperature, and washed three times with FACS buffer (PBS containing 1% BSA). PE/Cy5 Streptavidin secondary antibody was then added to the mixtures and incubated for 15 minutes at room temperature. Subsequently, the cells were washed with FACS buffer and analyzed by flow cytometry.

[6] = target: T5, CTLA-4-His protein (Homo sapiens (Human), UniProt P16410 37-161); test: SPR, antibody captured by Fc, CTLA-4-His as analyte
T5 construct: also called CTLA-4-His fusion protein; not shown: His tag

[7] = target: T1, human PD-1 expressed on CHO cells; test: FACS on CHO cells expressing human PD-1; remark: listed apart in the source
Protocol: as §1

[8] = target: T5, CTLA-4-His protein; test: SPR, antibody immobilised, CTLA-4-His as analyte
[9] = target: T3, human CTLA-4 expressed on CHO cells; test: FACS on CHO cells expressing human CTLA-4; remark: listed apart in the source
Protocol: as §2

[10] = target: T5, CTLA-4-His protein; test: SPR, antibody immobilised on CM5, CTLA-4-His as analyte
[11] = target: T5, CTLA-4-His protein; test: SPR, CTLA-4-His immobilised, HCAb as analyte at 5-160 nM
Protocol: Binding kinetics of anti-CTLA-4 HCAbs were determined using a Surface Plasmon Resonance (SPR) biosensor, Biacore T200 (GE Healthcare). Antigen CTLA-4-His fusion protein was immobilized on the sensor chip. […] The data of dissociation (kd) and association (kₐ) rate constants were obtained using Biacore T200 evaluation software. The apparent equilibrium dissociation constants (KD) were calculated from the ratio of kd/kₐ.

T2 sequence (P16410 37-161): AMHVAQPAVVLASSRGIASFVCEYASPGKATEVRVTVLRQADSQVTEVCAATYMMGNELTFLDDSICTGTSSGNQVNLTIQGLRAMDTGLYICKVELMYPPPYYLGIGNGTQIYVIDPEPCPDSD
T5 sequence (P16410 37-161 limits assumed): as the sequence (P16410 37-161) above
T1 sequence (Q15116 25-288): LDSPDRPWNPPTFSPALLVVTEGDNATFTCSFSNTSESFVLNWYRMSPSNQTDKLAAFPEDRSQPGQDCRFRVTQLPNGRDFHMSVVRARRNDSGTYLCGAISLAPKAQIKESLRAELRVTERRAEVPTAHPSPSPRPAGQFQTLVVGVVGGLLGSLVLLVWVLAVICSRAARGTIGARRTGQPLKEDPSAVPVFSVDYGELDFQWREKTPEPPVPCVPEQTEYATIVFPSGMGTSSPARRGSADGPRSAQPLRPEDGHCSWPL
T4 sequence (Q15116 25-167 limits assumed): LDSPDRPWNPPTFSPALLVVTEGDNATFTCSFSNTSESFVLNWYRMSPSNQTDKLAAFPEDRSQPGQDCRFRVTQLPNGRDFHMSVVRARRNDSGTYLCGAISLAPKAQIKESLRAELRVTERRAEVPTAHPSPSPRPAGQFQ
T3 sequence (P16410 37-223): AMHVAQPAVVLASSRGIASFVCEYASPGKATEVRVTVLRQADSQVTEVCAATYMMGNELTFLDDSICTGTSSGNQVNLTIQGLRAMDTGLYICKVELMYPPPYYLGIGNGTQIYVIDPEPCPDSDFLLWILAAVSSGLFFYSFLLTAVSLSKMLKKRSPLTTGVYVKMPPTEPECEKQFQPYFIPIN

| EC50 [1] | IC50 [2] | EC50 [3] | Kd [4] | IC50 [5] | Kd [6] | binding result [7] | binding result [8] | binding result [9] | binding result [10] | binding result [11] | Binder |
| --- | --- | --- | --- | --- | --- | --- | --- | --- | --- | --- | --- |
| – | – | – | – | – | – | binds | binds | binds | – | – | BCP-74 (AS07014VH11-mutated hIgG1 hinge-Keytruda) (bispecific antibody) heavy: not shown light: EIVLTQSPATLSLSPGERATLSCRASKGVSTSGYSYLHWYQQKPGQAPRLLIYLASYLESGVPARFSGSGSGTDFTLTISSLEPEDFAVYYCQHSRDLPLTFGGGTKVEIKRTVAAPSVFIFPPSDEQLKSGTASVVCLLNNFYPREAKVQWKVDNALQSGNSQESVTEQDSKDSTYSLSSTLTLSKADYEKHKVYACEVTHQGLSSPVTKSFNRGEC |
| – | – | – | – | – | – | binds | binds | binds | – | – | BCP-75 (AS07189TKDVH11-mutated hIgG1 hinge-Keytruda) (bispecific antibody) heavy: not shown light: EIVLTQSPATLSLSPGERATLSCRASKGVSTSGYSYLHWYQQKPGQAPRLLIYLASYLESGVPARFSGSGSGTDFTLTISSLEPEDFAVYYCQHSRDLPLTFGGGTKVEIKRTVAAPSVFIFPPSDEQLKSGTASVVCLLNNFYPREAKVQWKVDNALQSGNSQESVTEQDSKDSTYSLSSTLTLSKADYEKHKVYACEVTHQGLSSPVTKSFNRGEC |
| – | – | – | – | – | – | – | – | – | – | binds | AS07189 HCAb (Fc fusion, not shown: human IgG1 Fc) heavy: QVQLVESGGGSVQAGGSLRLSCAASGDSPSVNYMGWFRRAPEKQREQREEVASIYPTGGTFYTDSVKGRFTISRDNAKNTLYLQMTALKPEDTAMYYCAAGKWGTDYWGQGTQVIVSS |
| – | – | – | – | – | – | – | – | – | – | binds | AS07014 HCAb (Fc fusion, not shown: human IgG1 Fc) heavy: QVHLVESGGGSVQAGGSLRLSCAASGYTYSRHCLGWFRQTPGKEREAVATIDSDGSTSYADSVKGRFTISSDNAKNTLYLQMNSLKPEDTAMYYCAIGPNPRYCSGAPNTRGAEHYFGYWAQGTQVTVSS |

More lines, now with the values behind:

| Binder | EC50 [1] | IC50 [2] | EC50 [3] | Kd [4] | IC50 [5] | Kd [6] | binding result [7] | binding result [8] | binding result [9] | binding result [10] | binding result [11] |
| --- | --- | --- | --- | --- | --- | --- | --- | --- | --- | --- | --- |
| BCP-36 (Keytruda-scFv-hIgG1 hinge-A34311-CH1-IgG1 Fc, A34311-CL as light chain fusion polypeptide) (bispecific antibody) heavy: not shown light: QVKLEESGGGLVLPGESLRLSCEASGRTITTITMGWFRQAPGKERQFVASHSWTDNNPYYADSVKGRFIISRDNAGNRVYLQMHSLEPEDTAVYYCAATARRSFVGRQWYTEARQYDYWGQGTQVTVSSRTVAAPSVFIFPPSDEQLKSGTASVVCLLNNFYPREAKVQWKVDNALQSGNSQESVTEQDSKDSTYSLSSTLTLSKADYEKHKVYACEVTHQGLSSPVTKSFNRGEC | 1.8 nM | 17.9 nM | 26.4 nM | 8.3 nM | 2 nM | 6.1 nM | – | – | – | – | – |
| BCP-2 (BCP-K311) (Keytruda-9GS-A34311) (bispecific antibody, human IgG4 S228P, kappa) heavy: not shown light: EIVLTQSPATLSLSPGERATLSCRASKGVSTSGYSYLHWYQQKPGQAPRLLIYLASYLESGVPARFSGSGSGTDFTLTISSLEPEDFAVYYCQHSRDLPLTFGGGTKVEIKRTVAAPSVFIFPPSDEQLKSGTASVVCLLNNFYPREAKVQWKVDNALQSGNSQESVTEQDSKDSTYSLSSTLTLSKADYEKHKVYACEVTHQGLSSPVTKSFNRGEC | 5.2 nM | 11.7 nM | 16.4 nM | 5.3 nM | 2.3 nM | 11 nM | – | – | – | – | – |
| BCP-73 (A34311VH11-mutated hIgG1 hinge-Keytruda) (bispecific antibody) heavy: not shown light: EIVLTQSPATLSLSPGERATLSCRASKGVSTSGYSYLHWYQQKPGQAPRLLIYLASYLESGVPARFSGSGSGTDFTLTISSLEPEDFAVYYCQHSRDLPLTFGGGTKVEIKRTVAAPSVFIFPPSDEQLKSGTASVVCLLNNFYPREAKVQWKVDNALQSGNSQESVTEQDSKDSTYSLSSTLTLSKADYEKHKVYACEVTHQGLSSPVTKSFNRGEC | – | – | – | – | – | – | binds | binds | binds | – | – |
| BCP-311K (A34311-9GS-Keytruda) (bispecific antibody, human IgG4 S228P, kappa) heavy: not shown light: EIVLTQSPATLSLSPGERATLSCRASKGVSTSGYSYLHWYQQKPGQAPRLLIYLASYLESGVPARFSGSGSGTDFTLTISSLEPEDFAVYYCQHSRDLPLTFGGGTKVEIKRTVAAPSVFIFPPSDEQLKSGTASVVCLLNNFYPREAKVQWKVDNALQSGNSQESVTEQDSKDSTYSLSSTLTLSKADYEKHKVYACEVTHQGLSSPVTKSFNRGEC | – | – | – | – | – | – | – | – | – | binds | – |
| BCP-32 (A34311-9GS linker-A34311-9GS linker-Keytruda) (bispecific antibody, human IgG4 S228P, kappa) heavy: not shown light: EIVLTQSPATLSLSPGERATLSCRASKGVSTSGYSYLHWYQQKPGQAPRLLIYLASYLESGVPARFSGSGSGTDFTLTISSLEPEDFAVYYCQHSRDLPLTFGGGTKVEIKRTVAAPSVFIFPPSDEQLKSGTASVVCLLNNFYPREAKVQWKVDNALQSGNSQESVTEQDSKDSTYSLSSTLTLSKADYEKHKVYACEVTHQGLSSPVTKSFNRGEC | 8.1 nM | 14.6 nM | 71.7 nM | 7.5 nM | 4.3 nM | 4.1 nM | – | – | – | – | – |
| BCP-33 (Keytruda-Fab VH-CH1-hIgG1 hinge-A34311-IgG1 Fc) (bispecific antibody) heavy: not shown light: EIVLTQSPATLSLSPGERATLSCRASKGVSTSGYSYLHWYQQKPGQAPRLLIYLASYLESGVPARFSGSGSGTDFTLTISSLEPEDFAVYYCQHSRDLPLTFGGGTKVEIKRTVAAPSVFIFPPSDEQLKSGTASVVCLLNNFYPREAKVQWKVDNALQSGNSQESVTEQDSKDSTYSLSSTLTLSKADYEKHKVYACEVTHQGLSSPVTKSFNRGEC | 1.5 nM | 26.3 nM | 48 nM | 8.1 nM | 2 nM | 9.2 nM | – | – | – | – | – |
| BCP-31 (A34311-9GS linker-Keytruda) (bispecific antibody, human IgG4 S228P, kappa) heavy: not shown light: QVKLEESGGGLVLPGESLRLSCEASGRTITTITMGWFRQAPGKERQFVASHSWTDNNPYYADSVKGRFIISRDNAGNRVYLQMHSLEPEDTAVYYCAATARRSFVGRQWYTEARQYDYWGQGTQVTVSSGGGGSGGGSEIVLTQSPATLSLSPGERATLSCRASKGVSTSGYSYLHWYQQKPGQAPRLLIYLASYLESGVPARFSGSGSGTDFTLTISSLEPEDFAVYYCQHSRDLPLTFGGGTKVEIKRTVAAPSVFIFPPSDEQLKSGTASVVCLLNNFYPREAKVQWKVDNALQSGNSQESVTEQDSKDSTYSLSSTLTLSKADYEKHKVYACEVTHQGLSSPVTKSFNRGEC | 3.4 nM | 15.3 nM | 31.2 nM | 8 nM | 5.7 nM | 4.3 nM | – | – | – | – | – |
| BCP-35 (Keytruda-Fab VH-CH1-hIgG1 hinge-A34311-CH1-IgG4 Fc, Keytruda-Fab VL-CL-hIgG1 hinge-A34311-CL) (bispecific antibody) heavy: not shown light: EIVLTQSPATLSLSPGERATLSCRASKGVSTSGYSYLHWYQQKPGQAPRLLIYLASYLESGVPARFSGSGSGTDFTLTISSLEPEDFAVYYCQHSRDLPLTFGGGTKVEIKRTVAAPSVFIFPPSDEQLKSGTASVVCLLNNFYPREAKVQWKVDNALQSGNSQESVTEQDSKDSTYSLSSTLTLSKADYEKHKVYACEVTHQGLSSPVTKSFNRGECEPKSCDKTHTCPPCPQVKLEESGGGLVLPGESLRLSCEASGRTITTITMGWFRQAPGKERQFVASHSWTDNNPYYADSVKGRFIISRDNAGNRVYLQMHSLEPEDTAVYYCAATARRSFVGRQWYTEARQYDYWGQGTQVTVSSRTVAAPSVFIFPPSDEQLKSGTASVVCLLNNFYPREAKVQWKVDNALQSGNSQESVTEQDSKDSTYSLSSTLTLSKADYEKHKVYACEVTHQGLSSPVTKSFNRGEC | 3 nM | 17.5 nM | 20.4 nM | 7.3 nM | 4.6 nM | 7.2 nM | – | – | – | – | – |
| BCP-17 (Keytruda-hIgG1 hinge-A34311) (bispecific antibody) heavy: not shown light: EIVLTQSPATLSLSPGERATLSCRASKGVSTSGYSYLHWYQQKPGQAPRLLIYLASYLESGVPARFSGSGSGTDFTLTISSLEPEDFAVYYCQHSRDLPLTFGGGTKVEIKRTVAAPSVFIFPPSDEQLKSGTASVVCLLNNFYPREAKVQWKVDNALQSGNSQESVTEQDSKDSTYSLSSTLTLSKADYEKHKVYACEVTHQGLSSPVTKSFNRGECEPKSCDKTHTCPPCPQVKLEESGGGLVLPGESLRLSCEASGRTITTITMGWFRQAPGKERQFVASHSWTDNNPYYADSVKGRFIISRDNAGNRVYLQMHSLEPEDTAVYYCAATARRSFVGRQWYTEARQYDYWGQGTQVTVSS | 2.7 nM | 33.3 nM | 17.7 nM | 3.9 nM | 4 nM | 39.3 nM | – | – | – | – | – |
| BCP-16 (A34311-hIgG1 hinge-Keytruda) (bispecific antibody) heavy: not shown light: QVKLEESGGGLVLPGESLRLSCEASGRTITTITMGWFRQAPGKERQFVASHSWTDNNPYYADSVKGRFIISRDNAGNRVYLQMHSLEPEDTAVYYCAATARRSFVGRQWYTEARQYDYWGQGTQVTVSSEPKSCDKTHTCPPCPEIVLTQSPATLSLSPGERATLSCRASKGVSTSGYSYLHWYQQKPGQAPRLLIYLASYLESGVPARFSGSGSGTDFTLTISSLEPEDFAVYYCQHSRDLPLTFGGGTKVEIKRTVAAPSVFIFPPSDEQLKSGTASVVCLLNNFYPREAKVQWKVDNALQSGNSQESVTEQDSKDSTYSLSSTLTLSKADYEKHKVYACEVTHQGLSSPVTKSFNRGEC | 12.2 nM | 8.6 nM | 26.6 nM | 3.9 nM | 8.8 nM | 4.8 nM | – | – | – | – | – |
